This is an account of results in patent US20240182590A1, “METHOD OF TREATMENT OF PATIENTS HAVING REDUCED SENSITIVITY TO A BCL-2 INHIBITOR” (argenx BV, priority 2020, published 2024).

The subject of data set [1] is total mononuclear cell fraction of M4/5 samples. The conditions noted are these: M4/5 AML samples, ex vivo; cited from earlier work.
The conditions of data set [2]: cited from earlier work.
The test system of data set [3] is ROS-low LSCs from mono-AML and prim-AML. The note with it: versus ROS-low LSCs from primitive AML (Pei et al. 2020); cited from earlier work.
The subject of data set [4] is LSCs from VEN+AZA resistant monocytic AML bone marrow samples. The data set can be described thus: Colony forming unit (CFU) assay after incubation with antibody and NK cells. The note with it: 10 μg/ml antibody, NK cells 1:5 T:E, 24-hour incubation, then 14 days in methocult medium. Format: cell-based, human. As for the experimental part: FIG. 9 is a bar graph showing the effect of antibody treatment on leukemic stem cells from CD70 positive VEN+AZA resistant monocytic AML bone marrow samples. Data is normalized to the no antibody control colony forming units (CFU) for isotype control, blocking anti-CD70 antibody 41D12 FcDead and cusatuzumab. VEN+AZA resistant monocytic AML bone marrow samples were incubated with NK cells (1:5 T:E ratio) in the presence of antibodies (10 μg/ml) and then cultured in CFU medium in order to determine if LSCs were also efficiently targeted by cusatuzumab-mediated NK-dependent ADCC. […] One-way ANOVA test was used to determine significance. ****p<0.0001.
In order to test if CD70 positive LSCs from VEN+AZA resistant monocytic AML bone marrow samples could be targeted by cusatuzumab, bone marrow samples coming from VEN+AZA resistant samples were first incubated with cusatuzumab (10 μg/ml) and NK cells isolated from PBMCs from healthy donor (1:5 T:E ratio). After a 24-hour incubation samples were moved to methocult medium and further cultured in order to check if LSCs were targeted by cusatuzumab-mediated ADCC. No treatment, human IgG1 isotype control and blocking 41D12 FcDead antibody were used as negative controls. Cells were incubated in cell culture incubator at 37° C. for 14 days and colony forming units (CFU) were estimated by counting growing colonies.

For data set [5], the system named is CD70 positive monocytic AML cells. The data set can be described thus: Cusatuzumab-mediated NK-dependent ADCC on primary AML bone marrow samples. Format: cell-based, human. The conditions noted are these: 10 μg/ml, 24 hours. From the text: FIG. 7B is a bar graph showing the effect on monocytic and primitive AML cells. following administration of cusatuzumab, 41D12 FcDead antibody and a vehicle control. […] One-way ANOVA test was used to determine significance. *p<0.05.
FIG. 7C is a bar graph showing the effect on monocytic AML cells following administration of cusatuzumab, 41D12 FcDead antibody and a vehicle control. […] One-way ANOVA test was used to determine significance. ***p<0.001.
Cusatuzumab is an afucosylated anti-human CD70 antibody with enhanced properties to mediate NK-dependent antibody-dependent cellular cytotoxicity (ADCC) (Silence et al. 2014). VEN+AZA resistant CD70 positive monocytic AML (CD45^bright/SSC^high/CD38^+/CD34^−/CD33^+/CD11b^+/CD70^+) and mixed phenotype samples containing CD70 positive monocytic cells (CD45^bright/SSC^high/CD38^+/CD34^−/CD33^+/CD11b^+/CD70^+) and CD70 negative VEN+AZA sensitive primitive cells (CD45^medium/SSC^low/CD34^−/CD33^+/CD11b^+/CD70^− containing both CD38^+ and CD38^− populations) (FIG. 7A) were tested for sensitivity to cusatuzumab-mediated ADCC. Both types of primary bone marrow samples were treated with cusatuzumab at 10 μg/ml concentration and co-incubated with human NK cells isolated by a negative selection from healthy donor PBMCs. NK cells were added in 1:5 and 1:15 target to effector cells (T:E) ratio to monocytic AML and mixed phenotype bone marrow samples, respectively. Cells were co-cultured for 24 hours at 37° C. in cell culture incubator. Flow cytometry analysis was performed in order to measure number of primitive and monocytic AML cells and estimate the level of ADCC for particular sample. […] This supports the specificity of cusatuzumab-mediated effects in the targeting of CD70-positive VEN+AZA resistant monocytic AML cells.

The subject of data set [6] is CD70-induced CD27 signaling. The conditions noted are these: Silence et al. (2014); cited from earlier work.
Data set [7] relates to CD70-expressing tumor cells. The conditions noted are these: cited from earlier work.
For data set [8], the system named is VEN+AZA resistant monocytic AML cells. Put plainly: Patient-derived xenograft mouse model, monocytic AML cells in mouse bone marrow. The conditions noted are these: 3 doses every 3 days, cusatuzumab 10 mg/kg, Ven 100 mg/kg + Aza 3 mg/kg. Format: in vivo, NSGS mice. As for the experimental part: FIG. 10 is a bar graph showing the efficacy of anti-CD70 antibody treatment in the presence of NK cells in a patient-derived xenograft mouse model. NSGS mice were engrafted with VEN+AZA resistant monocytic AML bone marrow sample. When engraftment level in bone marrow reached around 25% of leukemic cells, animals were treated 3 times every 3 days with cusatuzumab or VEN+AZA with or without a single infusion of 1.5×10^6 NK cells. After 9 days animals were sacrificed, bone marrow from femur isolated and the number of malignant monocytic cells in bone marrow was determined. […] Mann-Whitney test was used to determine significance. *p<0.05, **p<0.01, ***p<0.001, ****p<0.0001.
Patient samples injected in NSGS mice engraft in mouse bone marrow. The efficiency of anti-leukemic compounds can be measured stringently using therapeutic approaches after full engraftment of patient-derived samples and by determination of the reduction of malignant cells in mouse bone marrow. 2×10^6 cells from bone marrow from VEN+AZA resistant monocytic AML per NSGS mouse were engrafted for 42 days. One cohort of animals was treated with vehicle, combination of 100 mg/kg Ven and 3 mg/kg Aza or 10 mg/kg cusatuzumab. […] One day after the third dose animals were sacrificed and bone marrow from femur was isolated and samples were analysed by flow cytometry to determine the number of monocytic AML cells. […]
A general note: Xenograft models place foreign cells or tissue in a host animal.

The test system of data set [9] is leukemic stem cells (LSCs) in AML patients. The conditions noted are these: in combination with azacitidine; see WO2018/229303; cited from earlier work.
For data set [10], the target named is T1, interaction of CD70 with its receptor CD27 (Homo sapiens, UniProt P32970).
T1 sequence (P32970 1-193): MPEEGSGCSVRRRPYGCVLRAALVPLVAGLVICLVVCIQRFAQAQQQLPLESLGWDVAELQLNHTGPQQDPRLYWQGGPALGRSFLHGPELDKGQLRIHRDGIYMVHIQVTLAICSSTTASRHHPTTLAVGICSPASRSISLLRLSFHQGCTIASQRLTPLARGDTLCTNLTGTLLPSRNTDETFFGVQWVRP
The conditions noted are these: Silence et al. (2014); cited from earlier work.

“Also recorded” adds a separate entry of the source.

For `CC1(C)CCC(CN2CCN(c3ccc(C(=O)NS(=O)(=O)c4ccc(NCC5CCOCC5)c([N+](=O)[O-])c4)c(Oc4cnc5[nH]ccc5c4)c3)CC2)=C(c2ccc(Cl)cc2)C1` [venetoclax, 4-(4-{[2-(4-chlorophenyl)-4,4dimethylcyclohex-1-en-1-yl]methyl}piperazin-1-yl)-N-({3-nitro-4-[(tetrahydro-2H-pyran-4ylmethyl)amino]phenyl}sulfonyl)-2-(1H-pyrrolo[2,3-b]pyridin-5-yloxy)benzamide], the venetoclax sensitivity entry in data set [1] was “decreased”. Besides, in data set [2], the aqueous solubility entry is “very low”. The “resistance of ROS-low LSCs from monocytic AML” value in data set [3] is “increased resistance”.

B1: cusatuzumab: monoclonal IgG1 anti-CD70 antibody, afucosylated for enhanced ADCC; CDR, VH and VL sequences in Table 1 (antibody, V domains shown)
VH: EVQLVESGGGLVQPGGSLRLSCAASGFTFSVYYMNWVRQAPGKGLEWVSDINNEGGTTYYADSVKGRFTISRDNSKNSLYLQMNSLRAEDTAVYYCARDAGYSNHVPIFDSWGQGTLVTVSS
VL: QAVVTQEPSLTVSPGGTVTLTCGLKSGSVTSDNFPTWYQQTPGQAPRLLIYNTNTRHSGVPDRFSGSILGNKAALTITGAQADDEAEYFCALFISNPSVEFGGGTQLTVLG
B1: the “number of growing colonies (CFU) versus no treatment control” value in data set [4] is “clear drop in the number of growing colonies; also recorded: significantly reduce the number of LSCs”. In addition, the “NK cell-dependent ADCC of monocytic cells” value is on record as “significantly targeted” in [5] (VEN+AZA resistant monocytic AML bone marrow sample, NK cells 1:5 T:E); “significantly mediate NK-dependent cell killing” in data set [5] (VEN+AZA resistant monocytic AML bone marrow sample, NK cells 1:5 T:E, listed as Cusatuzumab); “significantly targeted” in data set [5] (mixed phenotype AML bone marrow sample, NK cells 1:15 T:E); “significantly mediate NK-dependent cell killing” in data set [5] (mixed phenotype AML bone marrow sample, NK cells 1:15 T:E, listed as Cusatuzumab). Besides, the “CD70-induced CD27 signaling” value in data set [6] is “inhibit CD70-induced CD27 signaling”. Besides, the “antibody dependent cellular phagocytosis (ADCP) of CD70-expressing cells” value in data set [7] (Silence et al. (2014)) was “increase antibody dependent cellular phagocytosis (ADCP)”. Further, the “lysis of CD70-expressing tumor cells via antibody dependent cell-mediated cytotoxicity (ADCC)” value in data set [7] is “lyse CD70-expressing tumor cells”. Besides, in data set [7], the “lysis of CD70-expressing tumor cells via complement dependent cytotoxicity (CDC)” value was “lyse CD70-expressing tumor cells”. Also, the results for the “malignant human CD45+CD11b+CD117− cells in mouse bone marrow” value in data set [8] (in the absence of human NK cells) and in data set [8] (in the presence of human NK cells (1.5×10^6)) were “no significant effect” and “significant reduction; also recorded: significantly reduced levels of monocytic AML cells”, respectively. Besides, the “leukemic stem cells (LSCs) in AML patients” value in data set [9] is listed as “efficiently reduced”. Besides, in data set [10], the “interaction of CD70 with its receptor CD27” value is given as “inhibit the interaction of CD70 with its receptor CD27”.
